In article PMC13469128 one finds Kd and macrophage ADCP on-chip of MDA-MB-468 cells, fold increase over the background; AdV delivery of SIRPα-Fc alone (blocks the CD47-SIRPα axis) data, which are given here for two substances.

One test concerns the target CD47 (Mus musculus) (UniProt Q61735). Particulars: cited from earlier work.
Another test addresses CD47 (Homo sapiens) (UniProt Q08722). The note with it: cited from earlier work.
The target of test [1] is human CD47 on cells (human (endogenous in HCT116, MDA-MB-468, OVCAR3, HUVEC, C5120)) (UniProt Q08722).

Chain of SIRPα-Fc (P78324 31-373): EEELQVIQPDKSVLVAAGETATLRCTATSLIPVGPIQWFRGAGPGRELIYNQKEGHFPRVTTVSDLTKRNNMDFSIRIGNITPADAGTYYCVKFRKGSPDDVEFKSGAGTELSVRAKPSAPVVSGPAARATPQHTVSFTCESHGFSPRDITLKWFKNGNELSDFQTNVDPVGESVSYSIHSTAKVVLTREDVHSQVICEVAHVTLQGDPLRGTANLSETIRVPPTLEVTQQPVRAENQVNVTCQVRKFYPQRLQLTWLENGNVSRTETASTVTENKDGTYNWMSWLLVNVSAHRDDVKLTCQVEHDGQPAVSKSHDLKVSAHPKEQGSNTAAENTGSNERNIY
Chain of UniProt Q61735 (Q61735 19-303): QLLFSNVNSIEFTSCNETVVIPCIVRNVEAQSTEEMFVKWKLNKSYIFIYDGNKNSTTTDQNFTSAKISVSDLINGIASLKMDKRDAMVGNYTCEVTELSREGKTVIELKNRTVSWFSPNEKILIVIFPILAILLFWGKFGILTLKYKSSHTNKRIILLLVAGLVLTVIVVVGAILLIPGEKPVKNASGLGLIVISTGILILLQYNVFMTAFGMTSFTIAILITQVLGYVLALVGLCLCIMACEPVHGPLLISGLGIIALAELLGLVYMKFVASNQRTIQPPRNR

As a reminder, the Kd is the free concentration of one partner at which half of the binding sites on the other are occupied at equilibrium, for simple one-to-one binding. On to SIRPα-Fc (from UniProt P78324), for which the dissociation constant (Kd) with CD47 (Mus musculus) was 0.058 µM; with CD47 (Homo sapiens) it was 0.001 µM. In test [1], SIRPα-Fc fusion protein registered a macrophage ADCP on-chip of MDA-MB-468 cells, fold increase over the background; AdV delivery of SIRPα-Fc alone (blocks the CD47-SIRPα axis) of 1.7 fold.
